Source: patent publication CN116723860A (NOVARTIS AG, dated 2023)
One block for each binder: values may come before it.

Key:
重组人IL-1β = target: T1, 重组人IL-1β (human, UniProt P01584 117-269); experiment: solution equilibrium titration (SET), single target binding assay, mean KD
T1 construct: also called huIL-1β; IL-1b

重组人IL-18 = target: T2, 重组人IL-18 (human, UniProt Q14116 37-193); experiment: SET, single target binding assay
T2 construct: also called huIL-18; BTP 25829

Kd (重组人IL-1β): 0.6 pM
B1: mAb2 (antibody, human IgG1, kappa, V domains shown)
VH: QVQLVESGGGVVQPGRSLRLSCAASGFTFSVYGMNWVRQAPGKGLEWVAIIWYDGDNQYYADSVKGRFTISRDNSKNTLYLQMNGLRAEDTAVYYCARDLRTGPFDYWGQGTLVTVSS
VL: EIVLTQSPDFQSVTPKEKVTITCRASQSIGSSLHWYQQKPDQSPKLLIKYASQSFSGVPSRFSGSGSGTDFTLTINSLEAEDAAAYYCHQSSSLPFTFGPGTKVDIKR
notes: Human anti-IL-1β antibody, bivalent; also called IL-1β抗体; 卡那吉努单抗 (canakinumab)

binding result (重组人IL-18): binds
B2: mAb1 (antibody, human IgG1, lambda, L234A L235A, V domains shown)
VH: EVQLVQSGAEVKKPGSSVKVSCKASGGTFKSYAISWVRQAPGQGLEWMGNIIPMTGQTYYAQKFQGRVTITADESTSTAYMELSSLRSEDTAVYYCARAAYHPLVFDNWGQGTLVTVSS
VL: DIVLTQPPSVSGAPGQRVTISCSGSSSNIGNHYVNWYQQLPGTAPKLLIYRNNHRPSGVPDRFSGSKSGTSASLAITGLQSEDEADYYCQSWDYSGFSTVFGGGTKLTVLG
notes: Human anti-IL-18 antibody, bivalent; also called IL-18抗体
